According to paper doi:10.1101/2024.11.26.625568:

How the values were obtained:
dynein [1] = target: dynein (UniProt Q14204)
dynein [2] = target: dynein (UniProt Q14204); remark: listed apart in the source
dynein [3] = target: dynein (UniProt Q14204); remark: listed apart in the source

| run frequency of DDN complexes, against wild-type NuMA FL (fold increase) (dynein [1]) | Substance | further results |
| --- | --- | --- |
| < 4 | NuMA FL S1969D (from UniProt Q14980 1-2115) (natural protein) |  |
| < 4 | NuMA FL T2055D (from UniProt Q14980 1-2115) (natural protein) |  |
|  | NuMA 1-1699 (from UniProt Q14980 1-1699) (domain or fragment) | run frequency of DDN complexes in single-molecule motility assays, against the shorter NuMA fragments (dynein [2]): 5 fold lower |
|  | Full-length NuMA (from UniProt Q14980 1-2115) (natural protein) | frequency of processive runs of DDN complexes, against NuMA 1-705 under the same conditions (fold less frequent) (dynein [3]): 10 |
